Data: the supplement of paper PMC10126150
± gives the standard deviation of the averaged measurements.

Tested on: ATP
Assay: switch fluorescence ratio, 500 uM ATP over buffer (Cy3 cluster intensity, sum of 5 cycles each) (fold (ratio)); higher = stronger signal-on switching upon ATP binding; sequences stand for … in TCGTCGGCAGCGTCAGATGTGTATAAGAGACAGTTTTTTTTTTTTTTTTTTTTTTTTT…TC
Conditions: aptamer strand: ATP DNA aptamer (quencher-CACCTGGGGGAGTATTGCGGAGGAAGG + anchor), 100 nM annealed; ATP concentration: 500 uM
In short: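 For every switch-domain sequence, the fluorescence ratio is the mean of per-cluster values, each being summed target-cycle Cy3 intensity over summed buffer-cycle Cy3 intensity. Clusters outside 100-1000 RFU were excluded. On a modified Illumina MiSeq flow-cell, the Cy3-labelled switching-strand clusters were annealed to 100 nM quencher-labelled ATP aptamer, imaged in selection buffer and then after 15 min with 500 uM ATP at 22 °C. Five such cycles were run, with NaOH stripping and re-annealing between them.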
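Also: ATP exposure 15 min at 22 °C before imaging.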

Row | Sequence | switch fluorescence ratio
1 | AAGTCATGGG | 1.01 ± 0.031
2 | GGGGTCAGCC | 1.06 ± 0.13
3 | GAAATGGCGT | 0.986 ± 0.038
4 | TGACTGGGAA | 1.06 ± 0.091
5 | CGTCGTAAAA | 0.999 ± 0.036
6 | ATCAGAATCC | 1.04 ± 0.013
7 | CAAAGGGCAT | 1.02 ± 0.032
8 | TCATTATGAA | 0.987 ± 0.054
9 | GAAAAAGGGA | 0.979 ± 0.026
10 | TATTGAAGAG | 1.008 ± 0.0076
11 | AGAGGGGCCA | 1.01 ± 0.048
12 | TCCACGGATG | 1.04 ± 0.047
13 | TCGTTGAGTG | 1.02 ± 0.056
14 | ATAGGGGCAT | 1 ± 0.025
15 | CAATATTTTT | 1 ± 0.015
16 | TTTCATTAGT | 0.99 ± 0.045
17 | TCATGTGACT | 1.02 ± 0.053
18 | AGAGTACTCG | 1.05 ± 0.0048
19 | TTGTTAGGTG | 1.132 ± 0.0016
20 | TTCGTACTAT | 0.993 ± 0.039
21 | TTTTTTCCCT | 1.08 ± 0.12
22 | TATATTACCC | 1.05 ± 0.065
23 | CATGTTTTGG | 0.9836 ± 0.0043
24 | AGGGAGAATT | 1 ± 0.013
25 | CTCGGCGTCC | 1.142 ± 0.0086

Row | Sequence | switch fluorescence ratio
26 | AGTTTTGTTC | 1.01 ± 0.019
27 | AGTAGGGGTT | 0.979 ± 0.02
28 | GAGGGTCGTG | 0.9629 ± 0.0013
29 | CGGGTATGAT | 1.031 ± 0.0092
30 | GACGTAGTTT | 1.014 ± 0.0021
31 | TGATTTTACC | 1.06 ± 0.015
32 | TTTAAAAAAG | 1.02 ± 0.028
33 | TGGGAGAGTT | 0.993 ± 0.023
34 | GTTGTCGTGT | 1.01 ± 0.049
35 | GGTTACAGTT | 1.036 ± 0.01
36 | TGGGGGGAAT | 1.03 ± 0.1
37 | AAGCTGAAGT | 1.03 ± 0.035
38 | ATTGGGGTAT | 1 ± 0.03
39 | GCCGGCAAGT | 1.02 ± 0.016
40 | GTGATTTGGT | 0.995 ± 0.019
41 | ACTGTACCGG | 1.45 ± 0.04
42 | AAACGGGTCA | 0.983 ± 0.03
43 | TTTTCGGCTT | 0.965 ± 0.031
44 | CGGACTGGGA | 1.007 ± 0.0052
45 | GTTTTTGACT | 0.964 ± 0.03
46 | AAATCGTTGT | 0.975 ± 0.043
47 | TTTTCCTTTC | 1.206 ± 0.011
48 | GAAATCGGGG | 1.05 ± 0.15
49 | GCAGTGGGGA | 1 ± 0.031
50 | CGTTTTTGAT | 0.981 ± 0.04

Row | Sequence | switch fluorescence ratio
51 | GCATAGGGAT | 0.988 ± 0.022
52 | TCGTGTGACC | 1.009 ± 0.0093
53 | CGGTTATATG | 1.02 ± 0.015
54 | TGGAGTCGTG | 0.9729 ± 0.0091
55 | ATGCGATGTA | 1.04 ± 0.046
56 | ATCAAAGGTG | 1.404 ± 0.0027
57 | ATCATGTGCG | 1.01 ± 0.033
58 | GGGTTTTATT | 0.981 ± 0.036
59 | GTCGTACGTT | 1.06 ± 0.025
60 | TGGGTTCAGG | 1 ± 0.015
61 | GGAGTTCGTT | 1.09 ± 0.052
62 | AGGGGGGGGG | 1.02 ± 0.072
63 | GCATCACGAG | 1.08 ± 0.03
64 | ACCTACAAGG | 0.99429 ± 0.00094
65 | TATTTGGATG | 1.03 ± 0.069
66 | TAGGGCTTAG | 1.02 ± 0.032
67 | ACTGTAATCC | 1.16 ± 0.046
68 | ATGTTAAAAG | 1.01 ± 0.035
69 | TTTTGATCGC | 1.36 ± 0.5
70 | GCAGAGGGTG | 1.13 ± 0.086
71 | AGGTTCAGGC | 0.9821 ± 0.0086
72 | AATGCAGTGC | 1.26 ± 0.09
73 | GTTGATGGGA | 0.982 ± 0.03
74 | TCATACCCTG | 1.024 ± 0.0061
75 | GTGGGTCGGT | 0.979 ± 0.036

Row | Sequence | switch fluorescence ratio
76 | GTTCTGAAGG | 1.02 ± 0.0029
77 | GATGAGCTGT | 1.03 ± 0.046
78 | CCGGCTTGCT | 1.03 ± 0.036
79 | ATCATAAGTT | 1.01 ± 0.016
80 | TGTAATATGG | 1.1 ± 0.14
81 | CAGTTATGAC | 0.987 ± 0.011
82 | TTTTTTGGAA | 1.1 ± 0.16
83 | AGCATAAGC | 1.04 ± 0.012
84 | TAATAGTTTG | 1.028 ± 0.0095
85 | TCGTTGGTTT | 0.994 ± 0.021
86 | TTTATAGGCT | 1.01 ± 0.047
87 | GCTCAACAGA | 1.022 ± 0.0057
88 | TGCAGTGATC | 1.11 ± 0.056
89 | CGCATAGGCT | 1.11 ± 0.18
90 | CGAATTAGGT | 1.03 ± 0.019
91 | ACATAGGTGA | 1.1 ± 0.069
92 | TTATTATGGA | 1.02 ± 0.011
93 | GGCTTTGTGG | 0.992 ± 0.02
94 | AGATGGATTA | 1.025 ± 0.0024
95 | AGCTATTCCG | 1.01 ± 0.013
96 | CAAATGGGGG | 0.985 ± 0.015
97 | TTTTCTGTTC | 0.988 ± 0.044
98 | ACCAGCGAAT | 1.06 ± 0.043
99 | TTGTGCGCGC | 1.022 ± 0.0018
100 | AAGTGGAGTC | 1.05 ± 0.085

Row | Sequence | switch fluorescence ratio
101 | GGGCATTGCT | 0.9747 ± 0.0069
102 | GGCGAAATGG | 1.06 ± 0.059
103 | GCCGTATGCT | 0.9859 ± 0.0092
104 | GCTTGGCTTG | 1.02 ± 0.025
105 | GGAATAGCGG | 0.993 ± 0.029
106 | TAATCCATCG | 1.03 ± 0.049
107 | ATCGTAAAAG | 0.9926 ± 0.0011
108 | CTCTTTGGAC | 1.53 ± 0.89
109 | GCTTGATACG | 1.06 ± 0.099
110 | TGACCTGCAC | 1.51 ± 0.034
111 | GGTTGGGGGG | 1 ± 0.036
112 | CTCTAAGGGT | 1.005 ± 0.0098
113 | TCTCGAGGGG | 1 ± 0.019
114 | CACAAGTTTT | 1.02 ± 0.03
115 | AGGGTTTAAA | 1 ± 0.036
116 | GGGTTTTTAC | 1.03 ± 0.033
117 | GACGGGGCG | 0.97 ± 0.057
118 | ATGGGGGACA | 0.981 ± 0.012
119 | CCGCTCAGTT | 1.355 ± 0.0058
120 | AGAAGTACGC | 1.17 ± 0.1
121 | GTTTTGGCGT | 0.984 ± 0.021
122 | ACCGGCGAGG | 1.01 ± 0.036
123 | TGTTGGAGAA | 0.988 ± 0.011
124 | CAATATCTCC | 2.29 ± 0.16
125 | CTGGGGGTTA | 0.999 ± 0.059

Row | Sequence | switch fluorescence ratio
126 | GGGTTTCGAG | 1.04 ± 0.016
127 | TTGGACGTGT | 0.946 ± 0.027
128 | GTGGCATTTT | 1.01 ± 0.03
129 | CCAAAAGGAT | 1.01 ± 0.012
130 | CGGCTTTTTT | 0.959 ± 0.012
131 | ATACGGGTGC | 1.26 ± 0.043
132 | AGTTACAGCT | 1.03 ± 0.032
133 | GGGAAAAGGG | 0.998 ± 0.035
134 | CACGGACAGC | 1.41 ± 0.025
135 | ACGTGCAACT | 0.981 ± 0.049
136 | AATGTCTGGG | 0.9982 ± 0.0018
137 | AGGTAAGGGC | 1.01 ± 0.015
138 | TAGTTAACTT | 1.01 ± 0.021
139 | TCACACAGGC | 1.08 ± 0.16
140 | GGGTTTGTA | 0.965 ± 0.04
141 | GGGATTAAGG | 0.999 ± 0.021
142 | CAGAATGGGG | 0.998 ± 0.014
143 | CTCTGGGCAT | 2.2 ± 1.9
144 | GGCATACGTT | 0.994 ± 0.026
145 | TTGGGACTTT | 1.03 ± 0.022
146 | GGTAGTTGGT | 1.01 ± 0.011
147 | TATACGTGTG | 1.031 ± 0.0043
148 | AGGGAGTCTC | 0.98 ± 0.031
149 | CGCTCAGGAC | 1.29 ± 0.1
150 | TATCGGCGTG | 0.98796 ± 0.00031

Row | Sequence | switch fluorescence ratio
151 | TTAATTTGTT | 0.988 ± 0.042
152 | CGTGTCGCCT | 1.01 ± 0.015
153 | GGGGAAAGTT | 0.988 ± 0.043
154 | TTTGGGAGAT | 0.951 ± 0.023
155 | ATTGCATAGG | 0.9951 ± 0.0021
156 | GATTTTTTTC | 0.98 ± 0.05
157 | GTATGCGCAA | 2.74 ± 0.06
158 | TTGTTGGTGG | 0.9856 ± 0.0066
159 | GTTTTTTATC | 1 ± 0.029
160 | GACTGATCGT | 1.008 ± 0.0059
161 | TGTATGGGAA | 0.9352 ± 0.0043
162 | TTCAAGTTAG | 1 ± 0.035
163 | AAGGTTGCGT | 0.986 ± 0.04
164 | GTGGGACACG | 1.01 ± 0.048
165 | TTCAAAGAGT | 0.994 ± 0.019
166 | AAATACCGGC | 1.1 ± 0.16
167 | TCCCGAGGGG | 1.083 ± 0.01
168 | GAGGGGGAGC | 1.03 ± 0.089
169 | TGTGTTGATG | 1.01 ± 0.028
170 | GGGGGAATTT | 0.993 ± 0.028
171 | TTACTGGACG | 1.07 ± 0.058
172 | CAGATATTTC | 1.02 ± 0.021
173 | AGTTCGTAGA | 0.966 ± 0.048
174 | GGGCCGTTGG | 0.976 ± 0.042
175 | CATCTGATTA | 0.98832 ± 0.00039

Row | Sequence | switch fluorescence ratio
176 | CGGTGTATCG | 0.983 ± 0.027
177 | TGATAGGGGA | 1.01 ± 0.047
178 | TTTTAGATCT | 1.02 ± 0.016
179 | GTGGGTAGCG | 0.994 ± 0.013
180 | TCCAAGAGTT | 0.989 ± 0.0055
181 | GGAGGAGGGG | 1 ± 0.023
182 | TTGGCGGACG | 0.984 ± 0.026
183 | CGTTTGGAGG | 1.03 ± 0.016
184 | GTAGAAGGGG | 1 ± 0.021
185 | AAAAATGTAT | 0.975 ± 0.019
186 | TAGTGGGTTG | 1 ± 0.021
187 | AGAGGTAAGA | 0.9911 ± 0.0084
188 | CCTGGGGTCT | 1.03 ± 0.015
189 | GTTGTAAGG | 1.02 ± 0.025
190 | GAGAGTGGGG | 0.985 ± 0.037
191 | TTGAGGGCAG | 1 ± 0.034
192 | ATCAAGACAG | 1.01 ± 0.033
193 | AGGGTCGGCG | 1.01 ± 0.027
194 | AGTCAGTGAC | 1.009 ± 0.0026
195 | AGTAATAAGT | 0.979 ± 0.047
196 | TTTCGTGGAC | 1.08 ± 0.015
197 | AAGCGGGGGG | 1.03 ± 0.015
198 | GGGGGGAATT | 1.05 ± 0.1
199 | TTTGTTTTGA | 1.02 ± 0.027
200 | GGAAAAAGGA | 0.9423 ± 0.0081
